Source: patent US20150087577A1 (POLYPHOR, published 2015)
Bridges are numbered along the chain shown (N, C = ends). [ ]: non-standard residue; d: D form. 2Nal = N[C@@H](Cc1ccc2ccccc2c1)C(=O)O; Cit = NC(=O)NCCC[C@H](N)C(=O)O

B1: Example 28 (peptide)
peptide: cyclo(YR[Cit]FRVPRR[2Nal]FY[Cit]K[dP]P)
SMILES: CC(C)[C@@H]1NC(=O)[C@H](CCCNC(=N)N)NC(=O)[C@H](Cc2ccccc2)NC(=O)[C@H](CCCNC(N)=O)NC(=O)[C@H](CCCNC(=N)N)NC(=O)[C@H](Cc2ccc(O)cc2)NC(=O)[C@@H]2CCCN2C(=O)[C@H]2CCCN2C(=O)[C@H](CCCCN)NC(=O)[C@H](CCCNC(N)=O)NC(=O)[C@H](Cc2ccc(O)cc2)NC(=O)[C@H](Cc2ccccc2)NC(=O)[C@H](Cc2ccc3ccccc3c2)NC(=O)[C@H](CCCNC(=N)N)NC(=O)[C@H](CCCNC(=N)N)NC(=O)[C@@H]2CCCN2C1=O
B2: Example 158 (peptide)
peptide: RRWCYQKGYXPYGYRXCRGP
modifications: D-Pro at P10; Cit at P16; disulfide Cys P4-Cys P17; backbone-cyclic via template Gly-LPro
B3: Example 52 (peptide)
peptide: cyclo(YR[Cit]CRGGRR[2Nal]CY[Cit]K[dP]P)
modifications: disulfide 4-11
SMILES: N=C(N)NCCC[C@@H]1NC(=O)CNC(=O)CNC(=O)[C@H](CCCNC(=N)N)NC(=O)[C@@H]2CSSC[C@H](NC(=O)[C@H](Cc3ccc4ccccc4c3)NC(=O)[C@H](CCCNC(=N)N)NC1=O)C(=O)N[C@@H](Cc1ccc(O)cc1)C(=O)N[C@@H](CCCNC(N)=O)C(=O)N[C@@H](CCCCN)C(=O)N1CCC[C@@H]1C(=O)N1CCC[C@H]1C(=O)N[C@@H](Cc1ccc(O)cc1)C(=O)N[C@@H](CCCNC(=N)N)C(=O)N[C@@H](CCCNC(N)=O)C(=O)N2
B4: Example 31 (peptide)
peptide: cyclo(YR[Cit]VR[Cit]PRR[2Nal]FY[Cit]K[dP]P)
SMILES: CC(C)[C@@H]1NC(=O)[C@H](CCCNC(N)=O)NC(=O)[C@H](CCCNC(=N)N)NC(=O)[C@H](Cc2ccc(O)cc2)NC(=O)[C@@H]2CCCN2C(=O)[C@H]2CCCN2C(=O)[C@H](CCCCN)NC(=O)[C@H](CCCNC(N)=O)NC(=O)[C@H](Cc2ccc(O)cc2)NC(=O)[C@H](Cc2ccccc2)NC(=O)[C@H](Cc2ccc3ccccc3c2)NC(=O)[C@H](CCCNC(=N)N)NC(=O)[C@H](CCCNC(=N)N)NC(=O)[C@@H]2CCCN2C(=O)[C@H](CCCNC(N)=O)NC(=O)[C@H](CCCNC(=N)N)NC1=O
B5: Example 32 (peptide)
peptide: cyclo(YR[Cit]VRV[dP]RR[2Nal]FY[Cit]K[dP]P)
SMILES: CC(C)[C@@H]1NC(=O)[C@H](CCCNC(N)=O)NC(=O)[C@H](CCCNC(=N)N)NC(=O)[C@H](Cc2ccc(O)cc2)NC(=O)[C@@H]2CCCN2C(=O)[C@H]2CCCN2C(=O)[C@H](CCCCN)NC(=O)[C@H](CCCNC(N)=O)NC(=O)[C@H](Cc2ccc(O)cc2)NC(=O)[C@H](Cc2ccccc2)NC(=O)[C@H](Cc2ccc3ccccc3c2)NC(=O)[C@H](CCCNC(=N)N)NC(=O)[C@H](CCCNC(=N)N)NC(=O)[C@H]2CCCN2C(=O)[C@H](C(C)C)NC(=O)[C@H](CCCNC(=N)N)NC1=O
B6: Example 38 (peptide)
peptide: cyclo(YR[Cit]FRG[dP]RR[2Nal]FY[Cit]K[dP]P)
SMILES: N=C(N)NCCC[C@@H]1NC(=O)[C@H](Cc2ccccc2)NC(=O)[C@H](CCCNC(N)=O)NC(=O)[C@H](CCCNC(=N)N)NC(=O)[C@H](Cc2ccc(O)cc2)NC(=O)[C@@H]2CCCN2C(=O)[C@H]2CCCN2C(=O)[C@H](CCCCN)NC(=O)[C@H](CCCNC(N)=O)NC(=O)[C@H](Cc2ccc(O)cc2)NC(=O)[C@H](Cc2ccccc2)NC(=O)[C@H](Cc2ccc3ccccc3c2)NC(=O)[C@H](CCCNC(=N)N)NC(=O)[C@H](CCCNC(=N)N)NC(=O)[C@H]2CCCN2C(=O)CNC1=O
B7: Example 53 (peptide)
peptide: cyclo(YR[Cit]CRVGRR[2Nal]CY[Cit]K[dP]P)
modifications: disulfide 4-11
SMILES: CC(C)[C@@H]1NC(=O)[C@H](CCCNC(=N)N)NC(=O)[C@@H]2CSSC[C@H](NC(=O)[C@H](Cc3ccc4ccccc4c3)NC(=O)[C@H](CCCNC(=N)N)NC(=O)[C@H](CCCNC(=N)N)NC(=O)CNC1=O)C(=O)N[C@@H](Cc1ccc(O)cc1)C(=O)N[C@@H](CCCNC(N)=O)C(=O)N[C@@H](CCCCN)C(=O)N1CCC[C@@H]1C(=O)N1CCC[C@H]1C(=O)N[C@@H](Cc1ccc(O)cc1)C(=O)N[C@@H](CCCNC(=N)N)C(=O)N[C@@H](CCCNC(N)=O)C(=O)N2
B8: Example 54 (peptide)
peptide: cyclo(YR[Cit]CRG[dP]YR[2Nal]CYQK[dP]P)
modifications: disulfide 4-11
SMILES: N=C(N)NCCC[C@@H]1NC(=O)[C@@H]2CSSC[C@H](NC(=O)[C@H](Cc3ccc4ccccc4c3)NC(=O)[C@H](CCCNC(=N)N)NC(=O)[C@H](Cc3ccc(O)cc3)NC(=O)[C@H]3CCCN3C(=O)CNC1=O)C(=O)N[C@@H](Cc1ccc(O)cc1)C(=O)N[C@@H](CCC(N)=O)C(=O)N[C@@H](CCCCN)C(=O)N1CCC[C@@H]1C(=O)N1CCC[C@H]1C(=O)N[C@@H](Cc1ccc(O)cc1)C(=O)N[C@@H](CCCNC(=N)N)C(=O)N[C@@H](CCCNC(N)=O)C(=O)N2
B9: Example 2 (peptide)
peptide: cyclo(YR[Cit]VR[dR]R[2Nal]VY[Cit]K[dP]P)
SMILES: CC(C)[C@@H]1NC(=O)[C@H](Cc2ccc3ccccc3c2)NC(=O)[C@H](CCCNC(=N)N)NC(=O)[C@@H](CCCNC(=N)N)NC(=O)[C@H](CCCNC(=N)N)NC(=O)[C@H](C(C)C)NC(=O)[C@H](CCCNC(N)=O)NC(=O)[C@H](CCCNC(=N)N)NC(=O)[C@H](Cc2ccc(O)cc2)NC(=O)[C@@H]2CCCN2C(=O)[C@H]2CCCN2C(=O)[C@H](CCCCN)NC(=O)[C@H](CCCNC(N)=O)NC(=O)[C@H](Cc2ccc(O)cc2)NC1=O
B10: Example 55 (peptide)
peptide: cyclo(YR[Cit]CRG[dP]WR[2Nal]CYQK[dP]P)
modifications: disulfide 4-11
SMILES: N=C(N)NCCC[C@@H]1NC(=O)[C@@H]2CSSC[C@H](NC(=O)[C@H](Cc3ccc4ccccc4c3)NC(=O)[C@H](CCCNC(=N)N)NC(=O)[C@H](Cc3c[nH]c4ccccc34)NC(=O)[C@H]3CCCN3C(=O)CNC1=O)C(=O)N[C@@H](Cc1ccc(O)cc1)C(=O)N[C@@H](CCC(N)=O)C(=O)N[C@@H](CCCCN)C(=O)N1CCC[C@@H]1C(=O)N1CCC[C@H]1C(=O)N[C@@H](Cc1ccc(O)cc1)C(=O)N[C@@H](CCCNC(=N)N)C(=O)N[C@@H](CCCNC(N)=O)C(=O)N2
B11: Example 56 (peptide)
peptide: cyclo(YR[Cit]CRG[dP]TR[2Nal]CYQK[dP]P)
modifications: disulfide 4-11
SMILES: C[C@@H](O)[C@@H]1NC(=O)[C@H]2CCCN2C(=O)CNC(=O)[C@H](CCCNC(=N)N)NC(=O)[C@@H]2CSSC[C@H](NC(=O)[C@H](Cc3ccc4ccccc4c3)NC(=O)[C@H](CCCNC(=N)N)NC1=O)C(=O)N[C@@H](Cc1ccc(O)cc1)C(=O)N[C@@H](CCC(N)=O)C(=O)N[C@@H](CCCCN)C(=O)N1CCC[C@@H]1C(=O)N1CCC[C@H]1C(=O)N[C@@H](Cc1ccc(O)cc1)C(=O)N[C@@H](CCCNC(=N)N)C(=O)N[C@@H](CCCNC(N)=O)C(=O)N2
B12: Example 57 (peptide)
peptide: cyclo(YR[Cit]CRG[dP]RR[2Nal]CYRK[dP]P)
modifications: disulfide 4-11
SMILES: N=C(N)NCCC[C@@H]1NC(=O)[C@@H]2CSSC[C@H](NC(=O)[C@H](Cc3ccc4ccccc4c3)NC(=O)[C@H](CCCNC(=N)N)NC(=O)[C@H](CCCNC(=N)N)NC(=O)[C@H]3CCCN3C(=O)CNC1=O)C(=O)N[C@@H](Cc1ccc(O)cc1)C(=O)N[C@@H](CCCNC(=N)N)C(=O)N[C@@H](CCCCN)C(=O)N1CCC[C@@H]1C(=O)N1CCC[C@H]1C(=O)N[C@@H](Cc1ccc(O)cc1)C(=O)N[C@@H](CCCNC(=N)N)C(=O)N[C@@H](CCCNC(N)=O)C(=O)N2
B13: Example 58 (peptide)
peptide: cyclo(YR[Cit]CRG[dP]RR[2Nal]CYHK[dP]P)
modifications: disulfide 4-11
SMILES: N=C(N)NCCC[C@@H]1NC(=O)[C@@H]2CSSC[C@H](NC(=O)[C@H](Cc3ccc4ccccc4c3)NC(=O)[C@H](CCCNC(=N)N)NC(=O)[C@H](CCCNC(=N)N)NC(=O)[C@H]3CCCN3C(=O)CNC1=O)C(=O)N[C@@H](Cc1ccc(O)cc1)C(=O)N[C@@H](Cc1c[nH]cn1)C(=O)N[C@@H](CCCCN)C(=O)N1CCC[C@@H]1C(=O)N1CCC[C@H]1C(=O)N[C@@H](Cc1ccc(O)cc1)C(=O)N[C@@H](CCCNC(=N)N)C(=O)N[C@@H](CCCNC(N)=O)C(=O)N2
B14: Example 59 (peptide)
peptide: cyclo(YR[Cit]CRG[dP]RR[2Nal]CYYK[dP]P)
modifications: disulfide 4-11
SMILES: N=C(N)NCCC[C@@H]1NC(=O)[C@@H]2CSSC[C@H](NC(=O)[C@H](Cc3ccc4ccccc4c3)NC(=O)[C@H](CCCNC(=N)N)NC(=O)[C@H](CCCNC(=N)N)NC(=O)[C@H]3CCCN3C(=O)CNC1=O)C(=O)N[C@@H](Cc1ccc(O)cc1)C(=O)N[C@@H](Cc1ccc(O)cc1)C(=O)N[C@@H](CCCCN)C(=O)N1CCC[C@@H]1C(=O)N1CCC[C@H]1C(=O)N[C@@H](Cc1ccc(O)cc1)C(=O)N[C@@H](CCCNC(=N)N)C(=O)N[C@@H](CCCNC(N)=O)C(=O)N2

molecular target: human CXCR4 (human, UniProt P61073 1-352); assay: cell-based or functional assay
Sequence (P61073 whole entry): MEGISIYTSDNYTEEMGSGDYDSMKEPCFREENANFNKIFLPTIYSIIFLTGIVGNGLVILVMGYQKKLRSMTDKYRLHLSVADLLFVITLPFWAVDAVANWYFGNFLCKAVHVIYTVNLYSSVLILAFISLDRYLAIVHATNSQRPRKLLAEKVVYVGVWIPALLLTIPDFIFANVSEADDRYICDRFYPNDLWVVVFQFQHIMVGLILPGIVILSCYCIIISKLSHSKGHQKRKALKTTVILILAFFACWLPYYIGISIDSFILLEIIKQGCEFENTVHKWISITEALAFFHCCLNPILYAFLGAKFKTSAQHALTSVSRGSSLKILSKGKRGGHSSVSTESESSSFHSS

In order of falling “IC50 (nM) Ca2+ assay (method 1)” value:
1. B9  2830 nM
2. B1  2680 nM
3. B4  1470 nM
4. B5  760 nM
5. B6  720 nM
6. B7  57.8 nM
7. B3  3.1 nM

In order of rising “IC50 (nM) Ca2+ assay (method 2)” value:
1. cyclo(RRWCYRKCYKGYCYRKCRG[dP]) (disulfide 8-13, 4-17) [Example 160]  0.38 nM
2. B11  0.74 nM
3. B12  4.2 nM
4. B10  6.3 nM
5. B8  6.9 nM
6. B14  7.8 nM
7. B13  10.5 nM
8. RRWCYQKGYXGYGYRXCRGX (Cit at P16; disulfide Cys P4-Cys P17; backbone-cyclic via template Gly-DPro) [Example 157]  11.3 nM
9. RRWCYQKGYKGYGYRXCRGX (Cit at P16; disulfide Cys P4-Cys P17; backbone-cyclic via template Gly-DPro) [Example 156]  49 nM
10. RRYCYQKGYXPYGYRTCRGP (D-Pro at P10; disulfide Cys P4-Cys P17; backbone-cyclic via template Gly-LPro) [Example 159]  118 nM
11. B2  250 nM

B3 was tested, and the “IC50 (µM) Cell migration assay” value was 2.75 µM.
